From IntAct's records for PubMed 11742986

B1: 26S proteasome regulatory subunit 8 homolog (Saccharomyces cerevisiae), Q01939 (parent)
chain: MTAAVTSSNIVLETHESGIKPYFEQKIQETELKIRSKTENVRRLEAQRNALNDKVRFIKDELRLLQEPGSYVGEVIKIVSDKKVLVKVQPEGKYIVDVAKDINVKDLKASQRVCLRSDSYMLHKVLENKADPLVSLMMVEKVPDSTYDMVGGLTKQIKEIKEVIELPVKHPELFESLGIAQPKGVILYGPPGTGKTLLARAVAHHTDCKFIRVSGAELVQKYIGEGSRMVRELFVMAREHAPSIIFMDEIDSIGSTRVEGSGGGDSEVQRTMLELLNQLDGFETSKNIKIIMATNRLDILDPALLRPGRIDRKIEFPPPSVAARAEILRIHSRKMNLTRGINLRKVAEKMNGCSGADVKGVCTEAGMYALRERRIHVTQEDFELAVGKVMNKNQETAISVAKLFK
partner: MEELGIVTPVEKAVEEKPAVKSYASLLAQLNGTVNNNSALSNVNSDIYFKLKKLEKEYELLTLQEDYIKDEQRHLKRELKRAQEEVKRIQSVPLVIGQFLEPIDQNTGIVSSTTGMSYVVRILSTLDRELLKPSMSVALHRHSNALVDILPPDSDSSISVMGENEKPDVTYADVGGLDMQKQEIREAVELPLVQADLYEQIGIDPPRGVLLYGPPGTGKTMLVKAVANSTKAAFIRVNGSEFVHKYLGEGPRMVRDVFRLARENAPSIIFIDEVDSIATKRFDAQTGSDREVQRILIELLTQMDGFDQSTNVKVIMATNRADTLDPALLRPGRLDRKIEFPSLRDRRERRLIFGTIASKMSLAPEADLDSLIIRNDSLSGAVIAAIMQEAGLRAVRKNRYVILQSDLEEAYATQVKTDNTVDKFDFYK

Variants of: B1
Settings: with prs6b_yeast RPT3, P33298

| Variant | effect of a mutation on the interaction |
| --- | --- |
| MTAAVTSSNIVLETHESGIKPYFEQKIQETELKIRSKTENVRRLEAQRNALNDKVRFIKDELRLLQEPGSYVGEVIKIVSDKKVLVKVQPEGKYIVDVAKDINVKDLKASQRVCLRSDSYMLHKVLENKADPLVSLMMVEKVPDSTYDMVGGLTKQIKEIKEVIELPVKHPELFESLGIAQPKGVILYGPPGTGRTLLARAVAHHTDCKFIRVSGAELVQKYIGEGSRMVRELFVMAREHAPSIIFMDEIDSIGSTRVEGSGGGDSEVQRTMLELLNQLDGFETSKNIKIIMATNRLDILDPALLRPGRIDRKIEFPPPSVAARAEILRIHSRKMNLTRGINLRKVAEKMNGCSGADVKGVCTEAGMYALRERRIHVTQEDFELAVGKVMNKNQETAISVAKLFK [K195R] | decreasing interaction |
| MTAAVTSSNIVLETHESGIKPYFEQKIQETELKIRSKTENVRRLEAQRNALNDKVRFIKDELRLLQEPGSYVGEVIKIVSDKKVLVKVQPEGKYIVDVAKDINVKDLKASQRVCLRSDSYMLHKVLENKADPLVSLMMVEKVPDSTYDMVGGLTKQIKEIKEVIELPVKHPELFESLGIAQPKGVILYGPPGTGSTLLARAVAHHTDCKFIRVSGAELVQKYIGEGSRMVRELFVMAREHAPSIIFMDEIDSIGSTRVEGSGGGDSEVQRTMLELLNQLDGFETSKNIKIIMATNRLDILDPALLRPGRIDRKIEFPPPSVAARAEILRIHSRKMNLTRGINLRKVAEKMNGCSGADVKGVCTEAGMYALRERRIHVTQEDFELAVGKVMNKNQETAISVAKLFK [K195S] | decreasing interaction |
